Data reported in patent US20020103136.

Assays:
[1] = test system: Ac-(4-trans-L-Hyp)SSChgQ-SPheol-(dAc)-VIN
[2] = test system: Ac-4-trans-L-Hyp-SSChgQ-SS-(HCAP)-(dAc)-VIN
[3] = test system: Ac-4-trans-L-HypSSChgQS-cyclohexylalaninol-(dAc)-VIN
[4] = test system: Ac-4-trans-L-HypSSChgQSP(HCAP)-VIN
[5] = test system: Ac-AbuSSChgQ-S-(HCAP)-VIN
[6] = test system: Ac-AbuSSChgQ-SP-(HCAP)-(dAc)-VIN
[7] = test system: Ac-SChgQ-SP-(HCAP)-(dAc)-VIN
[8] = test system: Ac-SChgQ-SS(4-trans-L-Hyp)-(HCAP)-dAc-VIN
[9] = test system: Ac-SChgQSS(PIP)-(HCAP)-dAc-VIN
[10] = test system: Ac-SChgQSS-Sar-(HCAP)-dAc-VIN
[11] = test system: Ac-SChgQSS-gammaAbu-(HCAP)-dAc-VIN
[12] = test system: Ac-SSChgQ-SP-(HCAP)-(dAc)-VIN
[13] = test system: Ac-SSChgQ-SSP-(HCAP)-dAc-VIN
[14] = test system: N-hydroxyacetyl-AbuSSChgQ-SP-(HCAP)-(dAc)-VIN

free prostate specific antigen (PSA)
Time to 50% Substrate Cleavage by York PSA [1]: 25 min
Time to 50% Substrate Cleavage by York PSA [2]: 17 min
Time to 50% Substrate Cleavage by York PSA [3]: 10 min
Time to 50% Substrate Cleavage by York PSA [4]: 8 min
Substrate cleavage by York PSA at 1 hour (printed in the column 'Time to 50% Substrate Cleavage by York PSA (Min)') [5]: 1 HOUR = 28%
Time to 50% Substrate Cleavage by York PSA [6]: 18 min
Time to 50% Substrate Cleavage by York PSA [7]: 13 min
Time to 50% Substrate Cleavage by York PSA [8]: 7 min
Time to 50% Substrate Cleavage by York PSA (Ac-SChgQ-SSP-(HCAP)-VIN): 8 min
Time to 50% Substrate Cleavage by York PSA (Ac-SChgQS-Abu-(HCAP)-VIN): 60 min
Time to 50% Substrate Cleavage by York PSA (Ac-SChgQSS(HCAP)-dAc-VIN): 12 min
Time to 50% Substrate Cleavage by York PSA [9]: 22 min
Time to 50% Substrate Cleavage by York PSA [10]: 13 min
Time to 50% Substrate Cleavage by York PSA [11]: 12 min
Time to 50% Substrate Cleavage by York PSA [12]: 30 min
Time to 50% Substrate Cleavage by York PSA [13]: 8 min
Time to 50% Substrate Cleavage by York PSA [14]: 11 min
